Data: PMC3106293

Experiments:
Conditions in all cases: other: flavonoid as substrate; substrate inhibition equation (2); 37.0 °C
[1] = substrate: COc1ccc([C@@H]2CC(=O)c3c(O)cc(O)cc3O2)cc1O; experiment: not read
[2] = substrate: O=C1C[C@@H](c2ccc(O)c(O)c2)Oc2cc(O)cc(O)c21; experiment: Sulfation of flavonoids by recombinant hSULT1A1; assay type: in vitro ADME, human
[3] = substrate: Oc1cc(O)c2c(c1)O[C@H](c1ccc(O)c(O)c1)[C@H](O)C2; experiment: Sulfation of flavonoids by recombinant hSULT1A1; assay type: in vitro ADME, human
[4] = substrate: O=C1C[C@@H](c2ccc(O)c(O)c2)Oc2cc(O)cc(O)c21; experiment: not read
[5] = substrate: Oc1cc(O)c2c(c1)O[C@H](c1ccc(O)c(O)c1)[C@H](O)C2; experiment: not read

| Protein | Km [1] | Vmax [1] | Vmax/Km [1] | Km [2] | Vmax [2] | Vmax/Km [2] | Km [3] | Vmax [3] | Vmax/Km [3] | Km [4] | Vmax [4] | Vmax/Km [4] | Km [5] | Vmax [5] | Vmax/Km [5] |
| --- | --- | --- | --- | --- | --- | --- | --- | --- | --- | --- | --- | --- | --- | --- | --- |
| hSULT1A1 (Homo sapiens) (protein) MELIQDTSRPPLEYVKGVPLIKYFAEALGPLQSFQARPDDLLISTYPKSGTTWVSQILDMIYQGGDLEKCHRAPIFMRVPFLEFKAPGIPSGMETLKDTPAPRLLKTHLPLALLPQTLLDQKVKVVYVARNAKDVAVSYYHFYHMAKVHPEPGTWDSFLEKFMVGEVSYGSWYQHVQEWWELSRTHPVLYLFYEDMKENPKREIQKILEFVGRSLPEETVDFVVQHTSFKEMKKNPMTNYTTVPQEFMDHSISPFMRKGMAGDWKTTFTVAQNERFDADYAEKMAGCSLSFRSEL | 63.0 ± 0.6 µM | 0.0927 µmol/min/mg | 1470 µL/min/mg | 80.8 ± 3.3 µM | 0.0986 µmol/min/mg | 1220 µL/min/mg | 301 ± 89.0 µM | 0.188 µmol/min/mg | 620 µL/min/mg | – | – | – | – | – | – |
| hSULT1A3 (Homo sapiens) (protein) MELIQDTSRPPLEYVKGVPLIKYFAEALGPLQSFQARPDDLLINTYPKSGTTWVSQILDMIYQGGDLEKCNRAPIYVRVPFLEVNDPGEPSGLETLKDTPPPRLIKSHLPLALLPQTLLDQKVKVVYVARNPKDVAVSYYHFHRMEKAHPEPGTWDSFLEKFMAGEVSYGSWYQHVQEWWELSRTHPVLYLFYEDMKENPKREIQKILEFVGRSLPEETMDFMVQHTSFKEMKKNPMTNYTTVPQELMDHSISPFMRKGMAGDWKTTFTVAQNERFDADYAEKMAGCSLSFRSEL | 179 ± 3.7 µM | – | – | – | – | – | – | – | – | 193 ± 3.3 µM | 0.269 µmol/min/mg | 1390 µL/min/mg | 437 ± 10.1 µM | 0.442 µmol/min/mg | 1010 µL/min/mg |
